In the supplement of paper PMC9112550, “Optimization of the antimicrobial peptide Bac7 by deep mutational scanning” (BMC Biology, 2022):

Tested on: Escherichia coli TOP10
Experiment: shrunken log2 fold change of peptide-encoding DNA abundance (4.5 h post-induction vs induction); higher = less antimicrobial activity (less host growth inhibition)
Conditions: time post-induction: 4.5 h; library: site-saturation at positions 5, 18, 19, 20
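Note: peptides expressed intracellularly from a pBAD plasmid library in pooled LB shake-flask culture, induced with 0.3% L-arabinose, DNA abundance read by NGS, three biological replicates, DESeq2 with apeglm shrinkage.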

In order of rising “shrunken log2 fold change” value:
1. RRIRPRPPRLPRPRPRPYNKPRP  -1.16
2. RRIRERPPRLPRPRPRPYEMPRP  -1.05
3. RRIRHRPPRLPRPRPRPYIIPRP  -0.855
4. RRIRWRPPRLPRPRPRPYIAPRP  -0.825
5. RRIRTRPPRLPRPRPRPCDMPRP  -0.729
6. RRIRERPPRLPRPRPRPSFPPRP  -0.704
7. RRIRWRPPRLPRPRPRPHITPRP  -0.699
8. RRIRFRPPRLPRPRPRPMNLPRP  -0.623
9. RRIRNRPPRLPRPRPRPTSNPRP  -0.615
10. RRIRERPPRLPRPRPRPWYVPRP  -0.612
11. RRIRCRPPRLPRPRPRPWIIPRP  -0.577
12. RRIRHRPPRLPRPRPRPQYSPRP  -0.572
13. RRIRHRPPRLPRPRPRPYLTPRP  -0.556
14. RRIRSRPPRLPRPRPRPFMEPRP  -0.54
15. RRIRIRPPRLPRPRPRPTMEPRP  -0.523
16. RRIRNRPPRLPRPRPRPSPYPRP  -0.507
17. RRIRCRPPRLPRPRPRPIMDPRP  -0.5
18. RRIRIRPPRLPRPRPRPLNEPRP  -0.497
19. RRIRYRPPRLPRPRPRPWYPPRP  -0.485
20. RRIRFRPPRLPRPRPRPIFQPRP  -0.46
21. RRIRYRPPRLPRPRPRPDSQPRP  -0.429
22. RRIRNRPPRLPRPRPRPANDPRP  -0.392
23. RRIRQRPPRLPRPRPRPKHHPRP  -0.391
24. RRIRLRPPRLPRPRPRPYAAPRP  -0.36
25. RRIRMRPPRLPRPRPRPVFHPRP  -0.341
26. RRIRCRPPRLPRPRPRPMNKPRP  -0.32
27. RRIRIRPPRLPRPRPRPCNQPRP  -0.297
28. RRIRERPPRLPRPRPRPHCYPRP  -0.291
29. RRIRTRPPRLPRPRPRPWSCPRP  -0.29
30. RRIRSRPPRLPRPRPRPNKVPRP  -0.283
31. RRIRIRPPRLPRPRPRPAHNPRP  -0.271
32. RRIRTRPPRLPRPRPRPFCDPRP  -0.268
33. RRIRTRPPRLPRPRPRPKKHPRP  -0.265
34. RRIRDRPPRLPRPRPRPSVLPRP  -0.246
35. RRIRPRPPRLPRPRPRPIKNPRP  -0.219
36. RRIRNRPPRLPRPRPRPNTTPRP  -0.209
37. RRIRSRPPRLPRPRPRPLVYPRP  -0.206
38. RRIRNRPPRLPRPRPRPFLWPRP  -0.199
39. RRIRHRPPRLPRPRPRPCTHPRP  -0.192
40. RRIRCRPPRLPRPRPRPLQMPRP  -0.182
41. RRIRRRPPRLPRPRPRPYERPRP  -0.18
42. RRIRLRPPRLPRPRPRPMLMPRP  -0.177
43. RRIRMRPPRLPRPRPRPWKCPRP  -0.174
44. RRIRERPPRLPRPRPRPGCTPRP  -0.169
45. RRIRYRPPRLPRPRPRPRVFPRP  -0.167
46. RRIRLRPPRLPRPRPRPDTCPRP  -0.149
47. RRIRPRPPRLPRPRPRPHWEPRP  -0.146
48. RRIRNRPPRLPRPRPRPYATPRP  -0.145
49. RRIRVRPPRLPRPRPRPWFQPRP  -0.139
50. RRIRIRPPRLPRPRPRPCKSPRP  -0.133
51. RRIRQRPPRLPRPRPRPLCDPRP  -0.131
52. RRIRHRPPRLPRPRPRPHLQPRP  -0.129
53. RRIRRRPPRLPRPRPRPGYLPRP  -0.12
54. RRIRCRPPRLPRPRPRPNGIPRP  -0.117
55. RRIRQRPPRLPRPRPRPSTWPRP  -0.116
56. RRIRFRPPRLPRPRPRPEFMPRP  -0.109
57. RRIRNRPPRLPRPRPRPFCGPRP  -0.108
58. RRIRQRPPRLPRPRPRPLVMPRP  -0.107
59. RRIRPRPPRLPRPRPRPWEKPRP  -0.106
60. RRIRVRPPRLPRPRPRPLFCPRP  -0.103
61. RRIRFRPPRLPRPRPRPNPDPRP  -0.0966
62. RRIRKRPPRLPRPRPRPMLCPRP  -0.0829
63. RRIRKRPPRLPRPRPRPNICPRP  -0.0826
64. RRIRCRPPRLPRPRPRPVCVPRP  -0.0801
65. RRIRERPPRLPRPRPRPIIDPRP  -0.0746
66. RRIRNRPPRLPRPRPRPSQKPRP  -0.0723
67. RRIRIRPPRLPRPRPRPGICPRP  -0.0709
68. RRIRKRPPRLPRPRPRPQKQPRP  -0.0697
69. RRIRDRPPRLPRPRPRPYIGPRP  -0.0691
70. RRIRDRPPRLPRPRPRPIIQPRP  -0.0678
71. RRIRMRPPRLPRPRPRPYYSPRP  -0.0674
72. RRIRSRPPRLPRPRPRPQDWPRP  -0.0642
73. RRIRQRPPRLPRPRPRPAIIPRP  -0.0528
74. RRIRSRPPRLPRPRPRPMLQPRP  -0.0416
75. RRIRFRPPRLPRPRPRPNLRPRP  -0.0383
76. RRIRGRPPRLPRPRPRPDEMPRP  -0.0376
77. RRIRIRPPRLPRPRPRPPTMPRP  -0.0339
78. RRIRQRPPRLPRPRPRPCDAPRP  -0.027
79. RRIRNRPPRLPRPRPRPEPVPRP  -0.0258
80. RRIRMRPPRLPRPRPRPIYEPRP  -0.0231
81. RRIRIRPPRLPRPRPRPVTTPRP  -0.0229
82. RRIRFRPPRLPRPRPRPYECPRP  -0.0179
83. RRIRHRPPRLPRPRPRPIVMPRP  -0.012
84. RRIRQRPPRLPRPRPRPHEGPRP  -0.0113
85. RRIRWRPPRLPRPRPRPSLVPRP  -0.0104
86. RRIRYRPPRLPRPRPRPVEIPRP  -0.00968
87. RRIRHRPPRLPRPRPRPYDPPRP  -0.00884
88. RRIRLRPPRLPRPRPRPCTGPRP  -0.0081
89. RRIRRRPPRLPRPRPRPIEHPRP  -0.00775
90. RRIRFRPPRLPRPRPRPKQKPRP  -0.00156
91. RRIRDRPPRLPRPRPRPCRLPRP  0.00469
92. RRIRWRPPRLPRPRPRPQSLPRP  0.00606
93. RRIRQRPPRLPRPRPRPMDKPRP  0.0321
94. RRIRVRPPRLPRPRPRPETMPRP  0.0389
95. RRIRPRPPRLPRPRPRPPFKPRP  0.0437
96. RRIRFRPPRLPRPRPRPKNFPRP  0.0482
97. RRIRRRPPRLPRPRPRPKDTPRP  0.0485
98. RRIRFRPPRLPRPRPRPHSGPRP  0.0508
99. RRIRARPPRLPRPRPRPYDAPRP  0.0611
100. RRIRGRPPRLPRPRPRPNRDPRP  0.0612
101. RRIRSRPPRLPRPRPRPEIMPRP  0.0625
102. RRIRCRPPRLPRPRPRPVWLPRP  0.0721
103. RRIRGRPPRLPRPRPRPTVMPRP  0.074
104. RRIRRRPPRLPRPRPRPMQSPRP  0.0774
105. RRIRQRPPRLPRPRPRPDHRPRP  0.083
106. RRIRFRPPRLPRPRPRPDIAPRP  0.101
107. RRIRPRPPRLPRPRPRPQGIPRP  0.102
108. RRIRGRPPRLPRPRPRPSDDPRP  0.108
109. RRIRSRPPRLPRPRPRPKLQPRP  0.117
110. RRIRFRPPRLPRPRPRPRMWPRP  0.127
111. RRIRWRPPRLPRPRPRPTLCPRP  0.127
112. RRIRDRPPRLPRPRPRPWIDPRP  0.151
113. RRIRDRPPRLPRPRPRPDFAPRP  0.152
114. RRIRWRPPRLPRPRPRPNGQPRP  0.158
115. RRIRERPPRLPRPRPRPRGLPRP  0.159
116. RRIRIRPPRLPRPRPRPKLQPRP  0.173
117. RRIRARPPRLPRPRPRPANLPRP  0.177
118. RRIRKRPPRLPRPRPRPGHMPRP  0.177
119. RRIRHRPPRLPRPRPRPVSPPRP  0.183
120. RRIRCRPPRLPRPRPRPALCPRP  0.185
121. RRIRWRPPRLPRPRPRPSSRPRP  0.188
122. RRIRCRPPRLPRPRPRPSAKPRP  0.189
123. RRIRSRPPRLPRPRPRPMQNPRP  0.22
124. RRIRPRPPRLPRPRPRPLTPPRP  0.222
125. RRIRNRPPRLPRPRPRPPAEPRP  0.256
126. RRIRMRPPRLPRPRPRPDTMPRP  0.28
127. RRIRSRPPRLPRPRPRPAWDPRP  0.281
128. RRIRKRPPRLPRPRPRPWVAPRP  0.282
129. RRIRNRPPRLPRPRPRPPACPRP  0.301
130. RRIRARPPRLPRPRPRPQQAPRP  0.308
131. RRIRARPPRLPRPRPRPKHQPRP  0.324
132. RRIRRRPPRLPRPRPRPGWTPRP  0.326
133. RRIRMRPPRLPRPRPRPECSPRP  0.333
134. RRIRERPPRLPRPRPRPGCAPRP  0.335
135. RRIRWRPPRLPRPRPRPMVEPRP  0.35
136. RRIRCRPPRLPRPRPRPAQPPRP  0.366
137. RRIRDRPPRLPRPRPRPRPIPRP  0.429
138. RRIRWRPPRLPRPRPRPHAAPRP  0.45
139. RRIRWRPPRLPRPRPRPRLCPRP  0.512
140. RRIRVRPPRLPRPRPRPRTPPRP  0.555
141. RRIRNRPPRLPRPRPRPELWPRP  0.604
142. RRIRGRPPRLPRPRPRPGDTPRP  0.616
143. RRIRDRPPRLPRPRPRPACAPRP  0.705
144. RRIRMRPPRLPRPRPRPVVEPRP  0.719
145. RRIRMRPPRLPRPRPRPTCDPRP  0.79
146. RRIRWRPPRLPRPRPRPREHPRP  0.822
147. RRIRWRPPRLPRPRPRPLMEPRP  0.835
148. RRIRGRPPRLPRPRPRPALMPRP  0.879
149. RRIRMRPPRLPRPRPRPGWFPRP  1.16
150. RRIRKRPPRLPRPRPRPRATPRP  1.17
